This is an account of results in the supplement of paper PMC10567573.

A short description of this series: protein stability index of a GFP-peptide fusion (GPS, HEK-293T) (PSI 1-6); higher = more stable. As to conditions: c terminus: a fixed tail appended.

± gives the standard deviation.
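Note: 24-mer peptide tiles fused after GFP, lentivirally expressed, FACS-sorted into six equal bins by GFP/DsRed ratio, decoded by Illumina sequencing, PSI is the read-weighted mean bin number.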

As for LPSENLGKEPLDPDPSHSPSDKVG [TOR1AIP2], the protein stability index amounted to 5.42 ± 0.22 (treatment: DMSO) and 5.494 ± 0.038 (treatment: MLN4924 1 uM, 8 h).

Turning to LPSWADICTNLCEALQNFFSLACS [M1AP], the protein stability index is, setting by setting: (treatment: DMSO) 2.89 ± 0.31; (treatment: MLN4924 1 uM, 8 h) 2.9 ± 0.14.

As to LQAKQDGKKDVSHSSPVDLKIPQV [LCOR], the protein stability index by setting is: (treatment: DMSO) 4.94 ± 0.21; (treatment: MLN4924 1 uM, 8 h) 4.92 ± 0.06.

For LQPPHESRPQPIYYGFSESAESQG [ADAMTSL2], the protein stability index runs as follows: (treatment: DMSO) 4.18 ± 0.39; (treatment: MLN4924 1 uM, 8 h) 4.22 ± 0.56.

Take LQQLLVLQPEQQLNIYKTLKTHLI [CDS1]: the protein stability index amounted to 2.4 ± 0.55 (treatment: DMSO) and 2.17 ± 0.36 (treatment: MLN4924 1 uM, 8 h).

Take LRAELTKVEEEIVTLRQVLAAKER [TPD52L2]: the protein stability index runs as follows: (treatment: DMSO) 2.93 ± 0.31; (treatment: MLN4924 1 uM, 8 h) 3.45 ± 0.3.

For LRGAKAFRLPGLSRREREPEPPAA [FCHO1], the protein stability index runs as follows: (treatment: DMSO) 4.37 ± 0.28; (treatment: MLN4924 1 uM, 8 h) 4.14 ± 0.29.

Turning to LRQFDLAWQYGPCTGITRLQRWCR [POLD4], the protein stability index runs as follows: (treatment: DMSO) 2.26 ± 0.21; (treatment: MLN4924 1 uM, 8 h) 2.32 ± 0.27.

As for LSAASPDTGHDSDKSDQSLPNASA [TRAF3IP2], the protein stability index reads like this: (treatment: DMSO) 5.53 ± 0.28; (treatment: MLN4924 1 uM, 8 h) 5.51 ± 0.13.

Take LSASGPFESHDLLRKGFSCVKNEL [POMP]: the protein stability index (treatment: DMSO) came out at 3.37 ± 0.053 and the protein stability index (treatment: MLN4924 1 uM, 8 h) stood at 3.35 ± 0.43.

As for LSKFDLPEEPSAEDSINNSLVQLQ [MYBL2], the protein stability index by setting is: (treatment: DMSO) 4.88 ± 0.13; (treatment: MLN4924 1 uM, 8 h) 4.85 ± 0.16.

Consider LSNQLAVTFREENTIAFRHLFLLG [MCOLN1], for which the protein stability index stood at 2.48 ± 0.11 (treatment: DMSO) and 2.5 ± 0.18 (treatment: MLN4924 1 uM, 8 h).

With LSPAQKDLYRDVMLENYSNLVSVG [ZNF649], the protein stability index is, setting by setting: (treatment: DMSO) 2.37 ± 0.74; (treatment: MLN4924 1 uM, 8 h) 3.02 ± 0.77.

In turn, LSRHDKAVQRFCLIGSLSKHESEY [NETO1] gave a protein stability index (treatment: DMSO) of 2.72 ± 0.12 and a protein stability index (treatment: MLN4924 1 uM, 8 h) of 2.69 ± 0.072.

Consider LTDVSPEPLQALLERASATLQDLV [PRAME], for which the protein stability index is, setting by setting: (treatment: DMSO) 3.05 ± 0.16; (treatment: MLN4924 1 uM, 8 h) 3.33 ± 0.6.

For the sequence LTFHGLILRSQLVTLLVRGVCYSE [CLCN6], the protein stability index runs as follows: (treatment: DMSO) 2.98 ± 0.35; (treatment: MLN4924 1 uM, 8 h) 3.03 ± 0.26.

In the case of LTLCRSDLEAQMESLKEELLSLKQ [KRT33B], the protein stability index was 2.41 ± 0.28 (treatment: DMSO) and 2.8 ± 0.24 (treatment: MLN4924 1 uM, 8 h).

With LTQTMHDLAGLGSETPKSQVGTLL [CDC25B], the protein stability index worked out at 3.39 ± 0.42 (treatment: DMSO) and 3.62 ± 0.22 (treatment: MLN4924 1 uM, 8 h).

As to LVDNVYCIGQRRFHTMDELVEHYK [NCK2], the protein stability index came to 3.68 ± 0.24 (treatment: DMSO) and 3.96 ± 0.16 (treatment: MLN4924 1 uM, 8 h).

Take LVFQRRMDGQTDFWRDWEDYAHGF [TNXB]: the protein stability index stood at 2.64 ± 0.61 (treatment: DMSO) and 1.93 ± 0.51 (treatment: MLN4924 1 uM, 8 h).

With LVNPTCQVLVKDFTFEGFSRLRFL [ZER1], the protein stability index runs as follows: (treatment: DMSO) 2.02 ± 0.23; (treatment: MLN4924 1 uM, 8 h) 2.27 ± 0.29.

Turning to LVQDQDLEAIRKQDLVELYLTNCE [ZER1], the protein stability index is 3.61 ± 0.4 (treatment: DMSO) and 3.85 ± 0.38 (treatment: MLN4924 1 uM, 8 h).

Regarding LVQSSRSEVTELRRVLQGLEIELQ [KRT16], the protein stability index reads like this: (treatment: DMSO) 3.1 ± 0.24; (treatment: MLN4924 1 uM, 8 h) 3.08 ± 0.38.

Turning to LVSRHDPASRRRVVEEVRRRATSG [LPCAT4], the protein stability index by setting is: (treatment: DMSO) 4.5 ± 0.19; (treatment: MLN4924 1 uM, 8 h) 4.49 ± 0.23.

Take LWSDPDDRGGWGISPRGAGYTFGQ [PPP2CA]: the protein stability index was determined as 2.5 ± 0.31 (treatment: DMSO) and 2.72 ± 0.26 (treatment: MLN4924 1 uM, 8 h).

Take LWTSFIQSVSYSKLLSVIVWMLML [P2RY14]: the protein stability index was determined as 3.32 ± 0.53 (treatment: DMSO) and 3.4 ± 0.21 (treatment: MLN4924 1 uM, 8 h).

With LYLCPNGARCATWFQDPTRFTGTM [SLC25A39], the protein stability index came to 2.82 ± 0.64 (treatment: DMSO) and 2.7 ± 0.63 (treatment: MLN4924 1 uM, 8 h).

Turning to MAEGSAVSDPQHAARLLRALSSFR [GAN], the protein stability index by setting is: (treatment: DMSO) 3.16 ± 0.28; (treatment: MLN4924 1 uM, 8 h) 3.3 ± 0.24.

Regarding MAKFVIRPATAADCSDILRLIKEL [SAT1], the protein stability index is, setting by setting: (treatment: DMSO) 2.04 ± 0.16; (treatment: MLN4924 1 uM, 8 h) 2.22 ± 0.22.

With MANIHQENEEMEQPMQNGEEDRPL [BEX3], the protein stability index stood at 5.46 ± 0.055 (treatment: DMSO) and 5.71 ± 0.087 (treatment: MLN4924 1 uM, 8 h).

As to MAREHAFNIGLPDNIVNCNEFLCT [ZNF277], the protein stability index runs as follows: (treatment: DMSO) 2.94 ± 0.21; (treatment: MLN4924 1 uM, 8 h) 2.92 ± 0.57.

MATPPFRLIRKMFSFKVSRWMGLA [CCDC70]: the protein stability index reads like this: (treatment: DMSO) 2.51 ± 0.48; (treatment: MLN4924 1 uM, 8 h) 2.22 ± 0.099.

Sequence MCDAFVGTWKLVSSENFDDYMKEV [FABP4] registered a protein stability index (treatment: DMSO) of 2.55 ± 0.44 and a protein stability index (treatment: MLN4924 1 uM, 8 h) of 2.42 ± 0.46.

As to MCKEHEDEKINIYCLTCEVPTCSM [TRIM63], the protein stability index reads like this: (treatment: DMSO) 3.35 ± 0.26; (treatment: MLN4924 1 uM, 8 h) 3.27 ± 0.35.

MDVAISNNKKWILSASKDRTMRLW [WDR88] returned a protein stability index (treatment: DMSO) of 2.38 ± 0.19 and a protein stability index (treatment: MLN4924 1 uM, 8 h) of 2.35 ± 0.32.

Take MEAQAQGLLETEPLQGTDEDAVAS [TPD52L1]: the protein stability index is 5.56 ± 0.19 (treatment: DMSO) and 5.56 ± 0.16 (treatment: MLN4924 1 uM, 8 h).
